The values that follow come from US20060034759A1.

The target of test [1] is DOTA-Phe-Lys(HSG)-D-Tyr-Lys(HSG)-NH2 (IMP 241). The test is described as follows: in vivo pretargeting, GW-39 tumor-bearing nude mice, 3 h after 111In-IMP-241.
Test [2] deals with peptide containing a single HSG substituent and a thiol. The test is described as follows: BIAcore, CM-5 chip derivatised with the mono HSG peptide. (In general: SPR reads the build-up and loss of mass on a sensor chip optically.)
Test [3] addresses carcinoembryonic antigen (CEA) (UniProt P06731). The test is described as follows: SE-HPLC, 125I-labeled bsMAb with an excess of CEA.
For test [4], the target named is Ac-Lys(DTPA)-Tyr-Lys(DTPA)-Lys(Tscg-Cys)-NH2 (IMP 192). In words: calculated from biodistribution in GW-39 tumor-bearing nude mice, 1 h after peptide, assuming one peptide bound to one bsAb.
Test [5] shares this target. The test is described as follows: calculated from biodistribution in GW-39 tumor-bearing nude mice, 30 min after peptide, assuming one peptide bound to one bsAb.
The target is the same in test [6]. The test is described as follows: calculated from biodistribution in GW-39 tumor-bearing nude mice, 24 h after peptide, assuming one peptide bound to one bsAb.
Test [7] shares this target. The test is described as follows: calculated from biodistribution in GW-39 tumor-bearing nude mice, 3 h after peptide, assuming one peptide bound to one bsAb.
Test [8] has as its target carcinoembryonic antigen (CEA) (UniProt P06731). In words: analytical size exclusion HPLC, radioiodinated bsAb with 10-20× molar excess of CEA.
In test [9] the target is hMN-14×734 (Fab×Fab) bi-specific antibody. The test is described as follows: SE-HPLC shift with WI2 after incubation of radioiodinated bsAb in human serum at 37° C.
The target in test [10] is carcinoembryonic antigen (CEA) (UniProt P06731). The test is described as follows: immunoreactivity test of 99mTc-hMN-14 Fab′, method and antigen not stated.
carcinoembryonic antigen (CEA), sequence (P06731 35-685 limits assumed): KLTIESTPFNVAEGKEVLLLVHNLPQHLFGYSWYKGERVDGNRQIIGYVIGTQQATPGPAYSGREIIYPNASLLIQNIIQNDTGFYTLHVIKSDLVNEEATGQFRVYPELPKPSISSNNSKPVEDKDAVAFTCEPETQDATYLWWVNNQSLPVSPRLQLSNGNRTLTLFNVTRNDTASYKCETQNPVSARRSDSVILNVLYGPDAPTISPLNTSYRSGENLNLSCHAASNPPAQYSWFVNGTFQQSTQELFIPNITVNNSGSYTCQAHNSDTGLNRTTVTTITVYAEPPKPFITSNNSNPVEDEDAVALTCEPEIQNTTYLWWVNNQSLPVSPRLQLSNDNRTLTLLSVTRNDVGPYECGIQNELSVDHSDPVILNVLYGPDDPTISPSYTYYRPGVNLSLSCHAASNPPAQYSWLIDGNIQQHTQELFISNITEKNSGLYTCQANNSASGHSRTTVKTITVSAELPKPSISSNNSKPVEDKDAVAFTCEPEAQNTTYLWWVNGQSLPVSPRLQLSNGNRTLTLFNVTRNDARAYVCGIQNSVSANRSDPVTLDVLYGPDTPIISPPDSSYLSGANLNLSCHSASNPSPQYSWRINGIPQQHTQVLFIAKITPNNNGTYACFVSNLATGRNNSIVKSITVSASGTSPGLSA

As a reminder, the Kd is the free concentration of one partner at which half of the binding sites on the other are occupied at equilibrium, for simple one-to-one binding. “hMN-14×m679 F(ab′)2 bsMAb (bispecific antibody)”: the ratio of the % ID/g of the peptide compared to the bsMAb in the tumor in [1] was 3.9. The molecule further registered an equilibrium dissociation constant (Kd) in [2] of 1.5 nM. The percent of radiolabeled product shifting to a higher molecular weight in [3] is over 90%.

“hMN-14×734 (Fab×Fab) bi-specific antibody (bispecific antibody)”: the % saturation on hMN-14 × 734 (available DTPA binding sites on the tumor bound bsAb filled with 99m-Tc-IMP-192) in test [4] was 25.8%; in [5], 25.4%; in [6] it was 28%; in test [7], 25%. Moreover, the percent of bsAb bound in test [8] came to 90%.

For WI2 (rat anti-MN-14 idiotypic antibody), the % loss of binding capacity to WI2 after 48 h in serum in test [9] lay in the range of 3 to 5%.

B1: 99mTc-hMN-14 Fab′ (humanized MN-14 Fab′-SH) (Fab, INN chains, looked up, V domains shown)
VH: EVQLVESGGGVVQPGRSLRLSCSASGFDFTTYWMSWVRQAPGKGLEWIGEIHPDSSTINYAPSLKDRFTISRDNAKNTLFLQMDSLRPEDTGVYFCASLYFGFPWFAYWGQGTPVTVSS
VL: DIQLTQSPSSLSASVGDRVTITCKASQDVGTSVAWYQQKPGKAPKLLIYWTSTRHTGVPSRFSGSGSGTDFTFTISSLQPEDIATYYCQQYSLYRSFGQGTKVEIK
modifications: Fab' 99mTc label
Molecule B1 yielded an immunoreactive fraction in test [10] of 92%.
